The source of these data is patent US6284513.

Experiment [1] deals with thiopeptolide Ac-Pro-Leu-Gly-thioester-Leu-Leu-Gly-OEt (not provided).

For “human stromelysin catalytic domain protein (enzyme)”, the hydrolysis of the thiopeptolide substrate (Km, kcat) in experiment [1] was 270 µM. The same substance displayed a Proteoglycan Degradation (µg of Chondroitin Sulfate/h) (µg of Chondroitin Sulfate/h) with proteoglycan of 8.
